Laboratory results taken from patent US20240352134A1 (published 2024).

How the values were obtained:
rat CCR8 = target: T1, rat CCR8 (rat, UniProt D4ADE0 1-353); assay: FACS binding, rat CCR8-293T cells
T1 chain: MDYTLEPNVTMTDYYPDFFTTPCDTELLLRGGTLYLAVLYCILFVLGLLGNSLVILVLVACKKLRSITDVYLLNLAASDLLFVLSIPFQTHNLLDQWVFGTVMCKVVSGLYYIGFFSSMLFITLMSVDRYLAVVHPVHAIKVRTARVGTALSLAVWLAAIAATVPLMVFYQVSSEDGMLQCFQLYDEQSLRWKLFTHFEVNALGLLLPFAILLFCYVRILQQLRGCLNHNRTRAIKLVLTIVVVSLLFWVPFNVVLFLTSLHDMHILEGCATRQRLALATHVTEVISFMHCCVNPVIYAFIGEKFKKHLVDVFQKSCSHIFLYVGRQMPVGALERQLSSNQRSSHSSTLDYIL

Dog CCR8 = Dog CCR8 (dog); assay: FACS binding, dog CCR8-293T cells
cynomolgus CCR8 = target: T2, cynomolgus CCR8 (cynomolgus, UniProt G7NYJ2 1-355); assay: FACS binding, cyno CCR8-293T cells
T2 chain: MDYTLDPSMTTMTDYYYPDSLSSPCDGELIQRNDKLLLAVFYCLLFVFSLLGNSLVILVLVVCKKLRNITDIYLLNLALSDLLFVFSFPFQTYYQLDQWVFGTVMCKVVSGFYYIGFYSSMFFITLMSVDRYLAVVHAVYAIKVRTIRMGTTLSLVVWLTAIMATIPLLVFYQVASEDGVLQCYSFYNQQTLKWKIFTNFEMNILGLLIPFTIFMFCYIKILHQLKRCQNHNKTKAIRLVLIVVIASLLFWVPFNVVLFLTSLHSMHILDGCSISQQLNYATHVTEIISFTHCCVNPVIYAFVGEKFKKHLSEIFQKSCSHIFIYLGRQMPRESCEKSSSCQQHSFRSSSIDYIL

mouse CCR8 = target: T3, mouse CCR8 (mouse, UniProt P56484 1-353); assay: FACS binding, mouse CCR8-CHOK1 cells
T3 chain: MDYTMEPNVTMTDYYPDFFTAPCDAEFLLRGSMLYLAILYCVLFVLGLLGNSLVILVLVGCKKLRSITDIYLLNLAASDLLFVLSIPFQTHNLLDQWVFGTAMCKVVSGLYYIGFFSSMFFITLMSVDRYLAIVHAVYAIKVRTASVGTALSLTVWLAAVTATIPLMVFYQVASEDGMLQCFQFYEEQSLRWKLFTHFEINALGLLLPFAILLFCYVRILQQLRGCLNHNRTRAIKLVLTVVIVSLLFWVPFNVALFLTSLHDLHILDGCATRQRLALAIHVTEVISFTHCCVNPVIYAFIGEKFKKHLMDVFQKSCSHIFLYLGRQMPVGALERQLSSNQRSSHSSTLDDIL

B1: 3F11hz4 (antibody, V domains shown)
VH: EVQLVESGGGLVQPGGSLKLSCAASGFSFNTYAMNWVRQASGKGLEWVGRIRSKSNYYATYYAASVKGRFTISRDDSKSTLYLQMNSLKTEDTAVYYCVRGRELGDYYAMDYWGQGTLVTVSS
VL: DIVMTQSPLSLPVTPGEPASISCRSSKSLLHSNGNTYLYWFLQKPGQSPQLLIYRMSNLASGVPDRFSGSGSGTDFTLKISRVEAEDVGVYYCMQHLEYPFTFGQGTKLEIK
EC50 (rat CCR8): 3.2 nM | EC50 (Dog CCR8): 2 nM | EC50 (cynomolgus CCR8): 23.1 nM | EC50 (mouse CCR8): 0.79 nM
